# Test results: patent publication US20200024330A1
# Key:
# Test in all cases: cell-based or functional assay
# [1] = biological target: HIV-1 Env of isolate 93IN905 (HIV-1)
# [2] = biological target: HIV-1 Env of isolate 93MW959 (HIV-1)
# [3] = biological target: HIV-1 Env of isolate 97ZA012 (HIV-1)
# [4] = biological target: HIV-1 Env of isolate 98IN022 (HIV-1)
# [5] = biological target: HIV-1 Env of isolate JRCSF (HIV-1) (UniProt P20871)
# [6] = biological target: HIV-1 Env of isolate MGRM-Chronic-B-010 (HIV-1)
# [7] = biological target: HIV-1 Env of isolate MGRM-Chronic-B-011 (HIV-1)
# [8] = biological target: HIV-1 Env of isolate MGRM-Chronic-B-012 (HIV-1)
# [9] = biological target: HIV-1 Env of isolate MGRM-Chronic-B-017 (HIV-1)
# [10] = biological target: HIV-1 Env of isolate MGRM-Chronic-B-018 (HIV-1)
# [11] = biological target: HIV-1 Env of isolate MGRM-Chronic-B-020 (HIV-1)
# [12] = biological target: HIV-1 Env of isolate MGRM-Chronic-B-023 (HIV-1)
# [13] = biological target: HIV-1 Env of isolate MGRM-Chronic-B-024 (HIV-1)
# [14] = biological target: HIV-1 Env of isolate MGRM-D-011 (HIV-1)
# [15] = biological target: HIV-1 Env of isolate MGRM-D-012 (HIV-1)
# [16] = biological target: HIV-1 Env of isolate MGRM-D-013 (HIV-1)
# [17] = biological target: HIV-1 Env of isolate MGRM-D-014 (HIV-1)
# [18] = biological target: HIV-1 Env of isolate MGRM-D-016 (HIV-1)
# [19] = biological target: HIV-1 Env of isolate MGRM-D-018 (HIV-1)
# [20] = biological target: HIV-1 Env of isolate MGRM-D-019 (HIV-1)
# [21] = biological target: HIV-1 Env of isolate MGRM-D-020 (HIV-1)
# [22] = biological target: HIV-1 Env of isolate MGRM-D-021 (HIV-1)
# [23] = biological target: HIV-1 Env of isolate MGRM-D-022 (HIV-1)
# [24] = biological target: HIV-1 Env of isolate MGRM-D-024 (HIV-1)
# [25] = biological target: HIV-1 Env of isolate MGRM-D-026 (HIV-1)
# [26] = biological target: HIV-1 Env of isolate MGRM-D-028 (HIV-1)
# [27] = biological target: HIV-1 Env of isolate MGRM-D-029 (HIV-1)
# [28] = biological target: HIV-1 Env of isolate MGRM-F1-004 (HIV-1)
# [29] = biological target: HIV-1 Env of isolate MGRM-F1-006 (HIV-1)
# [30] = biological target: HIV-1 Env of isolate MGRM-F1-008 (HIV-1)
# [31] = biological target: HIV-1 Env of isolate MGRM-F1-010 (HIV-1)
# [32] = biological target: HIV-1 Env of isolate MGRM-F1-012 (HIV-1)
# [33] = biological target: HIV-1 Env of isolate MGRM-F1-013 (HIV-1)
# [34] = biological target: HIV-1 Env of isolate MGRM-F1-014 (HIV-1)
# [35] = biological target: HIV-1 Env of isolate MGRM-F1-015 (HIV-1)
# [36] = biological target: HIV-1 Env of isolate MGRM-F1-016 (HIV-1)
# [37] = biological target: HIV-1 Env of isolate MGRM-F1-017 (HIV-1)
# [38] = biological target: HIV-1 Env of isolate MGRM-F1-018 (HIV-1)
# [39] = biological target: HIV-1 Env of isolate MGRM-F1-020 (HIV-1)
# [40] = biological target: HIV-1 Env of isolate MGRM-F1-021 (HIV-1)
# [41] = biological target: HIV-1 Env of isolate MGRM-F1-022 (HIV-1)
# [42] = biological target: HIV-1 Env of isolate MGRM-F1-023 (HIV-1)
# [43] = biological target: HIV-1 Env of isolate NL43 (HIV-1)
# [44] = biological target: HIV-1 Env of isolate PVO.4 (HIV-1)
# [45] = biological target: HIV-1 Env of isolate QH0692.42 (HIV-1)
# [46] = biological target: HIV-1 Env of isolate SC422661.8 (HIV-1)
# [47] = biological target: HIV-1 Env of isolate SF162 (HIV-1) (UniProt P19550)
# [48] = biological target: HIV-1 Env of isolate THR0.18 (HIV-1)
# [49] = biological target: HIV-1 Env of isolate TRJ04551.58 (HIV-1)
# [50] = biological target: HIV-1 Env of isolate TRO.11 (HIV-1)
# [51] = biological target: HIV-1 Env of isolate VLGCB3 (HIV-1)
# Chain of PGT-144 (antibody) (VH): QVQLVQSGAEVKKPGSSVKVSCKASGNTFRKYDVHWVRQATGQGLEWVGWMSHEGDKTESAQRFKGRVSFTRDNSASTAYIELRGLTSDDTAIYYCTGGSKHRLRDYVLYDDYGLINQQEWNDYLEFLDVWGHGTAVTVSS
# Chain of PGT-144 (antibody) (VL): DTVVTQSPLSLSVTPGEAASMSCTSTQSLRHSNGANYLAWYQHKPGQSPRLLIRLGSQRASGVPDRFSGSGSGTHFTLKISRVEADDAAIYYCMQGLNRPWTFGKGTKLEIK
# Chain of PGT-142 (antibody) (VH): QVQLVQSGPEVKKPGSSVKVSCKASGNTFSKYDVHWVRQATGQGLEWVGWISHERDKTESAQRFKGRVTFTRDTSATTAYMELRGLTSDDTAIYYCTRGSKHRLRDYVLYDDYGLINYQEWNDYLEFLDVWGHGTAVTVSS
# Chain of PGT-142 (antibody) (VL): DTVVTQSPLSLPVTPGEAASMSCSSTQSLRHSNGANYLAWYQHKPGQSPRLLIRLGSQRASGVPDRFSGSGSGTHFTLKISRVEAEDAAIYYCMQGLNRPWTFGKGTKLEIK
substance,measurement,setting,value
PGT-144 (antibody),neutralization IC50,[1],0.132 µg/mL
same,neutralization IC50,[2],0.332 µg/mL
same,neutralization IC50,[3],> 50 µg/mL
same,neutralization IC50,[4],0.171 µg/mL
same,neutralization IC50,[5],0.149 µg/mL
same,neutralization IC50,[6],> 50 µg/mL
same,neutralization IC50,[7],5.64 µg/mL
same,neutralization IC50,[8],> 50 µg/mL
same,neutralization IC50,[9],0.712 µg/mL
same,neutralization IC50,[10],2.4 µg/mL
same,neutralization IC50,[11],> 50 µg/mL
same,neutralization IC50,[12],> 50 µg/mL
same,neutralization IC50,[13],0.04 µg/mL
same,"IC50, pseudovirus neutralization",[14],> 50 µg/mL
same,"IC50, pseudovirus neutralization",[15],> 50 µg/mL
same,"IC50, pseudovirus neutralization",[16],> 50 µg/mL
same,"IC50, pseudovirus neutralization",[17],0.113 µg/mL
same,"IC50, pseudovirus neutralization",[18],> 50 µg/mL
same,"IC50, pseudovirus neutralization",[19],> 50 µg/mL
same,"IC50, pseudovirus neutralization",[20],> 50 µg/mL
same,"IC50, pseudovirus neutralization",[21],> 50 µg/mL
same,"IC50, pseudovirus neutralization",[22],> 50 µg/mL
same,"IC50, pseudovirus neutralization",[23],> 50 µg/mL
same,"IC50, pseudovirus neutralization",[24],> 50 µg/mL
same,"IC50, pseudovirus neutralization",[25],> 50 µg/mL
same,"IC50, pseudovirus neutralization",[26],> 50 µg/mL
same,"IC50, pseudovirus neutralization",[27],0.459 µg/mL
same,"IC50, pseudovirus neutralization",[28],0.105 µg/mL
same,"IC50, pseudovirus neutralization",[29],20.6 µg/mL
same,"IC50, pseudovirus neutralization",[30],0.507 µg/mL
same,"IC50, pseudovirus neutralization",[31],> 50 µg/mL
same,"IC50, pseudovirus neutralization",[32],> 50 µg/mL
same,"IC50, pseudovirus neutralization",[33],0.509 µg/mL
same,"IC50, pseudovirus neutralization",[34],0.014 µg/mL
same,"IC50, pseudovirus neutralization",[35],> 50 µg/mL
same,"IC50, pseudovirus neutralization",[36],> 50 µg/mL
same,"IC50, pseudovirus neutralization",[37],> 50 µg/mL
same,"IC50, pseudovirus neutralization",[38],> 50 µg/mL
same,"IC50, pseudovirus neutralization",[39],8.93 µg/mL
same,"IC50, pseudovirus neutralization",[40],> 50 µg/mL
same,"IC50, pseudovirus neutralization",[41],0.382 µg/mL
same,"IC50, pseudovirus neutralization",[42],1.16 µg/mL
same,neutralization IC50,[43],> 50 µg/mL
same,neutralization IC50,[44],0.535 µg/mL
same,neutralization IC50,[45],> 50 µg/mL
same,neutralization IC50,[46],> 50 µg/mL
same,neutralization IC50,[47],> 50 µg/mL
same,neutralization IC50,[48],0.029 µg/mL
same,neutralization IC50,[49],> 50 µg/mL
same,neutralization IC50,[50],4.73 µg/mL
same,neutralization IC50,[51],> 50 µg/mL
PGT-142 (antibody),neutralization IC50,[1],0.001 µg/mL
same,neutralization IC50,[2],0.001 µg/mL
same,neutralization IC50,[3],> 50 µg/mL
same,neutralization IC50,[4],0.001 µg/mL
same,neutralization IC50,[5],0.01 µg/mL
same,neutralization IC50,[6],> 50 µg/mL
same,neutralization IC50,[7],0.994 µg/mL
same,neutralization IC50,[8],> 50 µg/mL
same,neutralization IC50,[9],0.076 µg/mL
same,neutralization IC50,[10],0.323 µg/mL
same,neutralization IC50,[11],> 50 µg/mL
same,neutralization IC50,[12],0.486 µg/mL
same,neutralization IC50,[13],0.005 µg/mL
same,"IC50, pseudovirus neutralization",[14],> 50 µg/mL
same,"IC50, pseudovirus neutralization",[15],> 50 µg/mL
same,"IC50, pseudovirus neutralization",[16],0.221 µg/mL
same,"IC50, pseudovirus neutralization",[17],0.005 µg/mL
same,"IC50, pseudovirus neutralization",[18],> 50 µg/mL
same,"IC50, pseudovirus neutralization",[19],> 50 µg/mL
same,"IC50, pseudovirus neutralization",[20],0.155 µg/mL
same,"IC50, pseudovirus neutralization",[21],> 50 µg/mL
same,"IC50, pseudovirus neutralization",[22],> 50 µg/mL
same,"IC50, pseudovirus neutralization",[23],> 50 µg/mL
same,"IC50, pseudovirus neutralization",[24],> 50 µg/mL
same,"IC50, pseudovirus neutralization",[25],12.5 µg/mL
same,"IC50, pseudovirus neutralization",[26],> 50 µg/mL
same,"IC50, pseudovirus neutralization",[27],0.192 µg/mL
same,"IC50, pseudovirus neutralization",[28],0.013 µg/mL
same,"IC50, pseudovirus neutralization",[29],12.9 µg/mL
same,"IC50, pseudovirus neutralization",[30],0.124 µg/mL
same,"IC50, pseudovirus neutralization",[31],> 50 µg/mL
same,"IC50, pseudovirus neutralization",[32],> 50 µg/mL
same,"IC50, pseudovirus neutralization",[33],0.023 µg/mL
same,"IC50, pseudovirus neutralization",[34],0.001 µg/mL
same,"IC50, pseudovirus neutralization",[35],> 50 µg/mL
same,"IC50, pseudovirus neutralization",[36],> 50 µg/mL
same,"IC50, pseudovirus neutralization",[37],23.5 µg/mL
same,"IC50, pseudovirus neutralization",[38],0.404 µg/mL
same,"IC50, pseudovirus neutralization",[39],0.824 µg/mL
same,"IC50, pseudovirus neutralization",[40],> 50 µg/mL
same,"IC50, pseudovirus neutralization",[41],0.04 µg/mL
same,"IC50, pseudovirus neutralization",[42],0.602 µg/mL
same,neutralization IC50,[43],> 50 µg/mL
same,neutralization IC50,[44],0.066 µg/mL
same,neutralization IC50,[45],> 50 µg/mL
same,neutralization IC50,[46],3.15 µg/mL
same,neutralization IC50,[47],> 50 µg/mL
same,neutralization IC50,[48],0.012 µg/mL
same,neutralization IC50,[49],> 50 µg/mL
same,neutralization IC50,[50],0.27 µg/mL
same,neutralization IC50,[51],> 50 µg/mL
